Experimental data reported in PMC2914791, “Trichomonas Transmembrane Cyclases Result from Massive Gene Duplication and Concomitant Development of Pseudogenes” (PLoS Neglected Tropical Diseases, 2010).

B1: group A cyclase (TVAG_456550), Trichomonas TMAC cyclase domain (Trichomonas vaginalis G3) (protein)
chain: TILFLDVVEFTPWCGSHDAQYVMRMLNIMFKEFDVITNAHKTMTKIKCIGDCYMAAGGIFDEVNQPPVHAKEVVDFGCKVIKKLLEIDEQENEKLRIRVGINTGGPIVAGVIGTEKPTFEILGPAINIAHEME
B2: group B cyclase (TVAG_013980), Trichomonas TMAC cyclase domain (Trichomonas vaginalis G3) (protein)
chain: TIFFVDIVKFSNYAAALSPSEIMSNLSLVFSTFDKIVVKYPTILKIKLIGDVYMAAAGIFSDPQMNPSKPAEESVNCCLDIQKVMEQINVKLSAGLEVRIGVNTGGPLIGGVLGTDKPTFDIIGDPINVASRLQ

Substrate: Nc1ncnc2c1ncn2[C@@H]1O[C@H](COP(=O)(O)OP(=O)(O)OP(=O)(O)O)[C@@H](O)[C@H]1O
Test: cAMP direct immunoassay, colorimetric
Type: biochemical, Trichomonas vaginalis
Settings: 4 µg GST-fusion protein; 0.2 mM GTP present in cAMP assay

Protein | Km
B1 | 520 ± 10 µM
B2 | 710 ± 10 µM
